B1: 24H7 scFv (单克隆scFv噬菌体抗体) (scFv)
scFv: QVQLQQPGAELVKPGASVKLSCKASGYTFTNYYIYWFKQRPGQGLEWIGGINPTSGGSNFNEKFKTKATLTVDESSTTAYMQLSSLTSEDSAVYYCTRQGLWFDSDGRGFDFWGQGTTLTVSSGGGGSGGGGSGGGGSDVLMTQIPLSLPVSLGDQASISCRSSQNIVHSNGNTYLDWYLQKPGQSPNLLIYKVSNRFSGVPDRFRGSGSGTDFTLKISRVEAEDLGVYYCFQYSHVPWTFGGGTKLEIKRGQAGQHHHHHH
notes: The phage coat protein fusion is not described
B2: 24H7 全长抗体 (full-length anti-EGFR antibody, IgG1/kappa) (antibody, V domains shown)
VH: QVQLQQPGAELVKPGASVKLSCKASGYTFTNYYIYWFKQRPGQGLEWIGGINPTSGGSNFNEKFKTKATLTVDESSTTAYMQLSSLTSEDSAVYYCTRQGLWFDSDGRGFDFWGQGTTLTVSS
VL: DVLMTQIPLSLPVSLGDQASISCRSSQNIVHSNGNTYLDWYLQKPGQSPNLLIYKVSNRFSGVPDRFRGSGSGTDFTLKISRVEAEDLGVYYCFQYSHVPWTFGGGTKLEIKR
notes: also called 全长24H7抗体

Tests used:
[1] = biological target: T1, 带有His6标签的EGFR胞外区蛋白 (EGFR extracellular domain with His6 tag) (UniProt P00533 25-645, limits assumed); test: monoclonal scFv-phage ELISA on coated antigen at 1 μg/ml, Anti-M13 HRP, OD450
T1 construct: extracellular domain; also called EGFR保外区蛋白; 抗原; not shown: His6 tag

[2] = biological target: T1, 带有His6标签的EGFR胞外区蛋白 (EGFR extracellular …); test: SPR, BIACORE X100 PLUS; ratio of KD against the reference mR3

Binder	binding result [1]	fold improvement of affinity against mR3 [2]
B1	binds	
B2		10 倍
